Assay results reported in paper PMC10700544.

B1: wild type RNase J, BACTH fusions (pUT18 and pKNT25) [Helicobacter pylori] / wild type RNase J, BACTH fusions (pUT18 and pKNT25) [Helicobacter pylori] (parent)
chain 1: MTDNNQNNENHENSSENSKADEMRAGAFERFTNRKKRFRENAQKNAEYSNHEASSHHKKEHRPNKKPNNHHKQKHAKTRNYAQEELDSNKVEGVTEILHVNERGTLGFHKELKKGVEANNKIQVEHLNPHYKMNLNSKASVKITPLGGLGEIGGNMMVIETPKSAIVIDAGMSFPKEGLFGVDILIPDFSYLHQIKDKIAGIIITHAHEDHIGATPYLFKELQFPLYGTPLSLGLIGSKFDEHGLKKYRSYFKIVEKRCPISVGEFIIEWIHITHSIIDSSALAIQTKAGTIIHTGDFKIDHTPVDNLPTDLYRLAHYGEKGVMLLLSDSTNSHKSGTTPSESTIAPAFDTLFKEAQGRVIMSTFSSNIHRVYQAIQYGIKYNRKIAVIGRSMEKNLDIARELGYIHLPYQSFIEANEVAKYPDNEILIVTTGSQGETMSALYRMATDEHRHISIKPNDLVIISAKAIPGNEASVSAVLNFLIKKEAKVAYQEFDNIHVSGHAAQEEQKLMLRLIKPKFFLPVHGEYNHVARHKQTAISCGVPEKNIYLMEDGDQVEVGPAFIKKVGTIKSGKSYVDNQSNLSIDTSIVQQREEVASAGVFVATIFVNKNKQALLESSQFSSLGLVGFKDEKPLIKEIQGGLEVLLKSSNAEILNNPKKLEDHTRNFIRKALFKKFRKYPAIICHAHSF
chain 2: B1 chain 1

Variants of: B1
Test: BACTH (bacterial two hybrid), beta-galactosidase read-out
Settings: with wild type RNase J, in E. coli, RNJ WT on pUT18, mutant on pKNT25, n ≥ 6, parent: 430, read off a plot

| Variant | response [Miller units] |
| --- | --- |
| chain 1 E594A | 440 |
| chain 1 K658A | 220 |
| chain 1 E593A | 520 |
| chain 1 E616A | 220 |
| chain 1 K632A | 380 |
| chain 1 K647A | 130 |
| chain 1 K609A | 500 |
| chain 1 E652A | 210 |
| chain 1 E661A | 180 |
